The values that follow come from article PMC10889886.

The target in experiment [1] is soluble SARS-CoV-2 Spike (S) (SARS-CoV-2). The experiment can be described thus: […], PBS running buffer; […].
Experiment [2] deals with HCoV-229E Spike antigen (HCoV-229E) (UniProt P15423). Briefly: […], PBS running buffer; […].

For orientation: stoichiometry N means the number of molecules, sites or subunits per partner or assembly. In turn, “soluble SARS-CoV-2 Spike (S) (domain or fragment)” yielded a stoichiometry N in experiment [1] of 3.
“HCoV-229E Spike antigen (from UniProt P15423 16-1173) (natural protein)” registered a stoichiometry N in experiment [2] of 3.
